Reference: patent publication US20150266977A1 (AbbVie / Abbott, published 2015)
Where a chain is given by its changes, count along the chain named.

T1: recombinant mouse sclerostin (mouse, UniProt Q99P68 24-211)
T1 construct: also called ms sclerostin; murine sclerostin
T1 sequence (looked up): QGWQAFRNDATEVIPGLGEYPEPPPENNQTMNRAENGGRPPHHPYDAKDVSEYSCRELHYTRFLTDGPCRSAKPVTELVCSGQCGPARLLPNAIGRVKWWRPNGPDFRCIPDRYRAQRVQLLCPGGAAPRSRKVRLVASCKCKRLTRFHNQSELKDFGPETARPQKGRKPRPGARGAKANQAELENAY

T2: recombinant rat sclerostin (rat, UniProt Q99P67 24-213, limits assumed)
T2 sequence (looked up): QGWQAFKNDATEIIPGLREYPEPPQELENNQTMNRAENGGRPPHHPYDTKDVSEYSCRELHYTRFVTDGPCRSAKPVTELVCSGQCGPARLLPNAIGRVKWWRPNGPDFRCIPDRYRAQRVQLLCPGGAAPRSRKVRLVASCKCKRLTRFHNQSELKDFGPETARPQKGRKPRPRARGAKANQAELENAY

T3: recombinant human sclerostin (human, UniProt Q9BQB4 24-213)
T3 construct: biotinylated in the ELISAs; also called hu sclerostin; hu scl
T3 sequence: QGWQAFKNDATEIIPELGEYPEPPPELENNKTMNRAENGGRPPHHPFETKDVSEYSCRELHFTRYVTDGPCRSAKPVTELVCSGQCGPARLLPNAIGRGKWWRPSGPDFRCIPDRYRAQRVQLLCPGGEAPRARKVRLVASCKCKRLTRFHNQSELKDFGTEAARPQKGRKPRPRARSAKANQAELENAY

B1: AE10-6-AM3 (antibody, V domains shown)
VH: EVQLVQSGAEVKKPGASVKVSCKVSGYTLTELSMHWVRQAPGKGLEWMGGFDPEDGETIYAQKFQGRVTMTEDTSTDTAYMELSSLRSEDTAVYYCATDSAGYWYKFFQHWGQGTLVTVSS
VL: QAVVTQEPSLTVSPGGTVTLTCGSSTGAVTIDHYPYWFQQKPGQAPRTLISDTDDKHSWTPARFSGSLLGGKAALTLSGAQPEDEAEYYCLLDYGGTFVFGGGTKLTVL
notes: converted into IgG
B2: AE10-6-AM2 (antibody, V domains shown)
VH: B1 VH with D55A, S100G, A101E, G102L
VL: B1 VL with D32W, D54N, T97S
notes: converted into IgG; also called rHC + LC S4 clone 102
B3: AE10-6-AM6 (antibody, V domains shown)
VH: B1 VH with T30S, D55G, S100T, A101E, Y105E
VL: B1 VL
notes: converted into IgG; also called rHC + LC S4 clone 119
B4: AE10-6-AM8 (antibody, V domains shown)
VH: B1 VH with T30S, M34I
VL: B1 VL with T97S
notes: converted into IgG
B5: AE10-6-AM5 (antibody, V domains shown)
VH: B1 VH with T30S, D55G, S100A, A101G
VL: B1 VL with A28T, D93F, F98V
notes: converted into IgG
B6: AE10-6-AM7 (antibody, V domains shown)
VH: B1 VH with S100T, A101V, Y105E
VL: B1 VL with A28T, T97R
notes: converted into IgG; also called rHC + LC S4 clone 131
B7: DVD2657 (bispecific antibody, human IgG1, kappa, L234A L235A)
heavy: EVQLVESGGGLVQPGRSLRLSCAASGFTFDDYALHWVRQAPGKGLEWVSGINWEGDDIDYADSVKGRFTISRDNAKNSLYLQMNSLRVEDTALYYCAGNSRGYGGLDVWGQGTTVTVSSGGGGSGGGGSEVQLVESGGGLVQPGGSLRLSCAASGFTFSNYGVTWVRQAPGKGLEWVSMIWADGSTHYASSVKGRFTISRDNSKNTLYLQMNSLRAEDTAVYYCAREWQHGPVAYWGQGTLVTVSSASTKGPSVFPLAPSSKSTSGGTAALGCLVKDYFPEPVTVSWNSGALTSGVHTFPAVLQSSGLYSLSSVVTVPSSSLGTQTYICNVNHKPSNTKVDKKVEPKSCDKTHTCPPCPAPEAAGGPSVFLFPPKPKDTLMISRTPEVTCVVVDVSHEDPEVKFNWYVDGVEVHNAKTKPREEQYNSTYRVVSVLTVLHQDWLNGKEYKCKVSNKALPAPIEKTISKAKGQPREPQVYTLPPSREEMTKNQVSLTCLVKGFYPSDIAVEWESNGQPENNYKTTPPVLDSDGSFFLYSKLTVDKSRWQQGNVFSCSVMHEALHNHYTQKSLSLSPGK
light: QSVLTQPPSASGTPGQRVTISCSGSSSNIGRNTVNWYQQLPGTAPKLLIYSNNQRPSGVPDRFSGSKSGTSASLAISGLQSEDEADYYCAAWDDNLESYVFGGGTKLTVLGGGSGGGGSGDIQMTQSPSSLSASVGDRVTITCRASQLVSSAVAWYQQKPGKAPKLLIYWASARHTGVPSRFSGSGSGTDFTLTISSLQPEDFATYYCQQHYKTPFTFGQGTKLEIKRTVAAPSVFIFPPSDEQLKSGTASVVCLLNNFYPREAKVQWKVDNALQSGNSQESVTEQDSKDSTYSLSSTLTLSKADYEKHKVYACEVTHQGLSSPVTKSFNRGEC
notes: DVD-Ig: outer MSL10-AM1.2, inner AB436
B8: DVD2658 (bispecific antibody, human IgG1, kappa, L234A L235A)
heavy: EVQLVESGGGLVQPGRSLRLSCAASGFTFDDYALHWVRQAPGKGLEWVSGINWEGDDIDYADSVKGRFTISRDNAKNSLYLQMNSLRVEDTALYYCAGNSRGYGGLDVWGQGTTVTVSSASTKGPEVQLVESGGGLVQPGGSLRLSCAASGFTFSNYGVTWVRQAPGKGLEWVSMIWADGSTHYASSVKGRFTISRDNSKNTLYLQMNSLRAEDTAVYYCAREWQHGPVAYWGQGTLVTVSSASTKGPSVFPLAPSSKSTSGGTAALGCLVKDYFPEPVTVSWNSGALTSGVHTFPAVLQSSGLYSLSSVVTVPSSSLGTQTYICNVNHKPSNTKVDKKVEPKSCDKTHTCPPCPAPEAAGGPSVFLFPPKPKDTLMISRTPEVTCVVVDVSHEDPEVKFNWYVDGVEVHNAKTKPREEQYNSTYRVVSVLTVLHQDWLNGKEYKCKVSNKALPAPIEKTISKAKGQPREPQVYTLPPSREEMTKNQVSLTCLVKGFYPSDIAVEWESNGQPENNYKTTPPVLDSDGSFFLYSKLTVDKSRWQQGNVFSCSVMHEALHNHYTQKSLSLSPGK
light: QSVLTQPPSASGTPGQRVTISCSGSSSNIGRNTVNWYQQLPGTAPKLLIYSNNQRPSGVPDRFSGSKSGTSASLAISGLQSEDEADYYCAAWDDNLESYVFGGGTKLTVLGQPKAAPDIQMTQSPSSLSASVGDRVTITCRASQLVSSAVAWYQQKPGKAPKLLIYWASARHTGVPSRFSGSGSGTDFTLTISSLQPEDFATYYCQQHYKTPFTFGQGTKLEIKRTVAAPSVFIFPPSDEQLKSGTASVVCLLNNFYPREAKVQWKVDNALQSGNSQESVTEQDSKDSTYSLSSTLTLSKADYEKHKVYACEVTHQGLSSPVTKSFNRGEC
notes: as for B7
B9: MAK195-21-GS-AE10-6 AM3 (bispecific antibody, human IgG1, lambda, L234A L235A)
heavy: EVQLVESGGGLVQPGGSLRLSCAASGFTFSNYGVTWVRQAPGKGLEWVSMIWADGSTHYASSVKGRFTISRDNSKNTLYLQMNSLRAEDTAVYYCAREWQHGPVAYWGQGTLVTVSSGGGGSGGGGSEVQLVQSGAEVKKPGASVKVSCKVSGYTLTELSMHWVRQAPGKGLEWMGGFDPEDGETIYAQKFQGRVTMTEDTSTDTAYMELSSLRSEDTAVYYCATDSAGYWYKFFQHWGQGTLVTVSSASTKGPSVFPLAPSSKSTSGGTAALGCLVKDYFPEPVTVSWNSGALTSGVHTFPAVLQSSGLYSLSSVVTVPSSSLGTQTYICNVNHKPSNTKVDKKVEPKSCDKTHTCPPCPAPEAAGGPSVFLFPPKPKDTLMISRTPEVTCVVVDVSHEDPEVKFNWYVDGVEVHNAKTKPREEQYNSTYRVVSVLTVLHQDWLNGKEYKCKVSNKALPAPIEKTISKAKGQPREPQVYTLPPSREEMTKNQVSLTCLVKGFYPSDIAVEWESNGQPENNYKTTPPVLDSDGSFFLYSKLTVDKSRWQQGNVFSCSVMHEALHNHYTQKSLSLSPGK
light: DIQMTQSPSSLSASVGDRVTITCRASQLVSSAVAWYQQKPGKAPKLLIYWASARHTGVPSRFSGSGSGTDFTLTISSLQPEDFATYYCQQHYKTPFTFGQGTKLEIKGGSGGGGSGQAVVTQEPSLTVSPGGTVTLTCGSSTGAVTIDHYPYWFQQKPGQAPRTLISDTDDKHSWTPARFSGSLLGGKAALTLSGAQPEDEAEYYCLLDYGGTFVFGGGTKLTVLGQPKAAPSVTLFPPSSEELQANKATLVCLISDFYPGAVTVAWKADSSPVKAGVETTTPSKQSNNKYAASSYLSLTPEQWKSHRSYSCQVTHEGSTVEKTVAPTECS
notes: DVD-Ig: outer MAK195-21, inner AE10-6 AM3; heavy chain row is printed MAK195-1-GS-AE10-6 AM3; also called MAK195-1-GS-AE10-6 AM3
B10: MAK195-21-GS-AE10-6 AM7 (bispecific antibody, human IgG1, lambda, L234A L235A)
heavy: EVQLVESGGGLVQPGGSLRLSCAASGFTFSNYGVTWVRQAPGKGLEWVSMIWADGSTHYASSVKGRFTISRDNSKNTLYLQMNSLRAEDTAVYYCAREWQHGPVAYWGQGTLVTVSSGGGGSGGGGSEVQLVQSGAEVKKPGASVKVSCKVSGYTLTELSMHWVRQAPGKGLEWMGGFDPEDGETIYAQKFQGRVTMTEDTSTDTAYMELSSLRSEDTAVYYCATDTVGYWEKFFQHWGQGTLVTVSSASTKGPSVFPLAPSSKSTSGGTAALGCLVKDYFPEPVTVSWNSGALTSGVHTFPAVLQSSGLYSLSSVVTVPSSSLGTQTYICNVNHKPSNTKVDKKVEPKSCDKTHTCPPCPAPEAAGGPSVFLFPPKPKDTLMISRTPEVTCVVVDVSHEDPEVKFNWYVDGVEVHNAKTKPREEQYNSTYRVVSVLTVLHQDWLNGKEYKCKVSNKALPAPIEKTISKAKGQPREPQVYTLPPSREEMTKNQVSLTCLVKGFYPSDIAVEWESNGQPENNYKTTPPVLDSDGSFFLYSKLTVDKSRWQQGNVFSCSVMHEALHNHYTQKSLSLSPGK
light: B9 light with A144T, T213R
notes: DVD-Ig: outer MAK195-21, inner AE10-6 AM7
B11: MAK195-21-GS-AE10-6 AM8 (bispecific antibody, human IgG1, lambda, L234A L235A)
heavy: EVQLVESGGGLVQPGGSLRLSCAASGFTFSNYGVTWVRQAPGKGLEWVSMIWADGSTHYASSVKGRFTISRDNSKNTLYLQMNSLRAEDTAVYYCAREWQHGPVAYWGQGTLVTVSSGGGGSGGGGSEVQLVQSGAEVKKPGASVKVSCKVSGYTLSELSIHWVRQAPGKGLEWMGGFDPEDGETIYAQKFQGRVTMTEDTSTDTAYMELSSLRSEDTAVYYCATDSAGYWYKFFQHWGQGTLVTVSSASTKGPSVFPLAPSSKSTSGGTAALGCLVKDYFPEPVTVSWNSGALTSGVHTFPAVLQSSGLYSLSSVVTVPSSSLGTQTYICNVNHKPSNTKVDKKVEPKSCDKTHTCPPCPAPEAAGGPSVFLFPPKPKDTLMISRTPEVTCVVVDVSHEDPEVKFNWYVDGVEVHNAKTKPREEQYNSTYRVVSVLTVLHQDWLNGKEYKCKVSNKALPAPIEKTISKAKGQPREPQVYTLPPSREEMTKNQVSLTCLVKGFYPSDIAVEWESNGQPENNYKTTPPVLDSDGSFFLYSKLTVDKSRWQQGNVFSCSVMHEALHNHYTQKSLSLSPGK
light: B9 light with T213S
notes: DVD-Ig: outer MAK195-21, inner AE10-6 AM8
B12: MAK195-21-SS-AE10-6 AM7 (bispecific antibody, human IgG1, lambda, L234A L235A)
heavy: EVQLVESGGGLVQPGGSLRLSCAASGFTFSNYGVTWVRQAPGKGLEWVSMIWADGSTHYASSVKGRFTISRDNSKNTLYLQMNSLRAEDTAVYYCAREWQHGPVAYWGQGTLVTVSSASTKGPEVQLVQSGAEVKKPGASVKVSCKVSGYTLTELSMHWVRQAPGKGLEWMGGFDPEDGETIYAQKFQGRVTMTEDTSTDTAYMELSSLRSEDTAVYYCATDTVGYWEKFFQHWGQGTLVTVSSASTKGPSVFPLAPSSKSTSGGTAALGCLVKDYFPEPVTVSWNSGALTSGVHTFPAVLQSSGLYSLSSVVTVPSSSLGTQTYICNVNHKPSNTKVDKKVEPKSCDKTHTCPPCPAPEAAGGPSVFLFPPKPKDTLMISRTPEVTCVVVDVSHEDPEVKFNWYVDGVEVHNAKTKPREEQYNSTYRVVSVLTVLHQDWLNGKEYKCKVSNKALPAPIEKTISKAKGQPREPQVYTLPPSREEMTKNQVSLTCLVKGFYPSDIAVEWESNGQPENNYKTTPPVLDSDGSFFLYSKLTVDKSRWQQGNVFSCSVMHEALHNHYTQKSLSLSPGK
light: DIQMTQSPSSLSASVGDRVTITCRASQLVSSAVAWYQQKPGKAPKLLIYWASARHTGVPSRFSGSGSGTDFTLTISSLQPEDFATYYCQQHYKTPFTFGQGTKLEIKRTVAAPQAVVTQEPSLTVSPGGTVTLTCGSSTGTVTIDHYPYWFQQKPGQAPRTLISDTDDKHSWTPARFSGSLLGGKAALTLSGAQPEDEAEYYCLLDYGGRFVFGGGTKLTVLGQPKAAPSVTLFPPSSEELQANKATLVCLISDFYPGAVTVAWKADSSPVKAGVETTTPSKQSNNKYAASSYLSLTPEQWKSHRSYSCQVTHEGSTVEKTVAPTECS
notes: as for B10

What follows are binders tested against T1, recombinant mouse sclerostin (assay: SPR).
Method: (§1) The binding of antibodies or anti-sclerostin-TNF DVD to purified recombinant human, cynomolgus monkey (cyno), rat and mouse sclerostin and TNFα was determined by surface plasmon resonance-based measurements with a Biacore T100 or T200 instruments (GE Healthcare Life Sciences, Piscataway, N.J., USA) using running HBS-EP+ (10 mM HEPES [pH 7.4], 150 mM NaCl, 3 mM EDTA, and 0.005% surfactant P20) containing additional 150 mM NaCl, and/or 10 mg/ml carboxymethyl dextran, 0.1 mg/ml BSA at 25° C. All chemicals were obtained from GE Healthcare Life Sciences, Piscataway, N.J., USA or otherwise from a different source as described in the text. Approximately 10,000 RU (or 3000 RU when CM3 chip was used) of goat anti-mouse or anti-human IgG (Fcγ) fragment specific polyclonal antibody (Pierce Biotechnology Inc, Rockford, Ill.) diluted in 10 mM sodium acetate (pH 4.5) was directly immobilized across a CM5 (or CM3) research grade biosensor chip using a standard amine coupling kit according to manufacturer's instructions and procedures at 15 μg/ml. Unreacted moieties on the biosensor surface were blocked with ethanolamine. Modified carboxymethyl dextran surface in flowcells 2, 3 and 4 were used as a reaction surface. Modified carboxymethyl dextran in flow cell 1 was used as the reference surface. Biaevaluation T100 software version 2.0.2, GE Healthcare Life Sciences was used to simultaneously fit association and dissociation phases of all injections (using 1:1 fit analysis with local Rmax). Purified antibodies were diluted in running buffer for capture across goat anti-mouse or anti-human IgG specific reaction surfaces. Antibodies to be captured as a ligand (1 μg/ml) were injected over reaction matrices at a flow rate of 10 μl/minute. The association and dissociation rate constants, kon (unit M-1 s-1) and koff (unit s-1) were determined under a continuous flow rate of 50 μl/minute. […] At the end of each cycle the surfaces were regenerated with 10 s injection of 50 mM NaOH or/and by 10 s injection of 10 mM Glycine pH1.5 at a flow rate of 100 μl/min.

| Kd [pM] | koff [s⁻¹] | kon [M⁻¹ s⁻¹] | Binder |
| --- | --- | --- | --- |
| 5.5 | 5.5e-05 | 1e+07 | B1 |
| 94 | 0.002 | 2.1e+07 | B2 |
| 27 | 0.00087 | 3.2e+07 | B3 |
| 7.4 | 8.2e-05 | 1.1e+07 | B4 |
| 16 | 0.00011 | 7e+06 | B5 |
| 9.3 | 0.00012 | 1.3e+07 | B6 |

These binders were tested against T2, recombinant rat sclerostin (assay: SPR).
Method: as §1

| Kd [pM] | koff [s⁻¹] | kon [M⁻¹ s⁻¹] | Binder |
| --- | --- | --- | --- |
| 10 | 1.9e-05 | 1.9e+06 | B1 |
| 120 | 0.00088 | 7.6e+06 | B2 |
| 98 | 0.00018 | 1.9e+06 | B3 |
| 34 | 5.9e-05 | 1.8e+06 | B4 |
| 56 | 7.5e-05 | 1.3e+06 | B5 |
| 26 | 4.6e-05 | 1.8e+06 | B6 |

What follows are binders tested against T4, recombinant cynomolgus monkey sclerostin (cynomolgus monkey) (assay: SPR).
T4 construct: also called cyno sclerostin; Cyno sclerostin
Method: as §1

| Kd [pM] | koff [s⁻¹] | kon [M⁻¹ s⁻¹] | Binder |
| --- | --- | --- | --- |
| 0.24 | 1.6e-06 | 6.9e+06 | B1 |
| 7.1 | 2.6e-05 | 3.6e+06 | B2 |
| 0.88 | 7e-06 | 7.9e+06 | B3 |
| 0.39 | 3e-06 | 7.7e+06 | B4 |
| 1.5 | 7.6e-06 | 5.2e+06 | B5 |
| < 0.14 | < 1e-07 | 7e+06 | B6 |
| 130 | 5e-05 | 390000 | B7 |
| 61 | 3e-05 | 500000 | B8 |

These binders were tested against T3, recombinant human sclerostin (assay: SPR).
Method: as §1

| Kd [pM] | koff [s⁻¹] | kon [M⁻¹ s⁻¹] | Binder |
| --- | --- | --- | --- |
| 0.54 | 3.8e-06 | 7e+06 | B1 |
| 8.1 | 2.7e-05 | 3.4e+06 | B2 |
| 1.3 | 1.2e-05 | 9.1e+06 | B3 |
| 1.3 | 9.7e-06 | 7.4e+06 | B4 |
| 3 | 1.3e-05 | 4.3e+06 | B5 |
| 0.3 | 2.1e-06 | 7.1e+06 | B6 |
| 8.2 | 1.7e-05 | 2.1e+06 | B9 |
| 10 | 2e-05 | 2e+06 | B10 |
| 3.6 | 7.9e-06 | 2.2e+06 | B11 |
| 17 | 4.9e-06 | 280000 | B7 |
| < 3.7 | < 1e-06 | 270000 | B8 |
| < 1.5 | < 1e-06 | 680000 | B12 |
